Measurements reported in US20030236190A1 (published 2003).
Non-standard residues stand in square brackets, D forms with d. Primed or numbered codes have the meaning given here. No end group written: not given here. Hyp = O=C(O)[C@@H]1C[C@@H](O)CN1; Cha = N[C@@H](CC1CCCCC1)C(=O)O; Ac6c = NC1(C(=O)O)CCCCC1; Aic′ = not defined here; Aib = CC(C)(N)C(=O)O

B1: S437 (peptide)
peptide 1: ESFYDWFERQLGGGGK
peptide 2: LDQEWAWVQCEVYGRGCPS
modifications: not fully specified (bridges); cysteine pairing not given here; also: K16 of chain 1 chemically linked to C-terminus of chain 2 (C-C on a lysine)
B2: S438 (peptide)
peptide 1: ESFYDWFERQLGGGGK
peptide 2: DQEWAWVQCEVYGRGCPS
modifications: not fully specified (bridges); cysteine pairing not given here; also: K16 of chain 1 chemically linked to C-terminus of chain 2 (C-C on a lysine)
B3: S334 (peptide)
peptide 1: XGGGFHENFYDWFVRQVSKK
peptide 2: XGGGFHENFYDWFVRQVSKK
modifications: N-terminal Lig′ coupled to linker 22
notes: dimer, N-N
B4: S301 (peptide)
peptide 1: XDWLQRNANFYDWFVAEL
peptide 2: XDWLQRNANFYDWFVAEL
modifications: N-terminal Lig′ coupled to linker 14
notes: dimer, N-N
B5: S362 (peptide)
peptide 1: XGSLDESFYDWFERQLGKK
peptide 2: XGSLDESFYDWFERQLGKK
modifications: N-terminal Lig′ coupled to linker 24
notes: dimer, N-N
B6: S293 (peptide)
peptide 1: XGGGFHENFYDWFVRQVSKK
peptide 2: XGGGFHENFYDWFVRQVSKK
modifications: not fully specified; N-terminal Lig′ coupled to linker 13
notes: dimer, N-N
B7: S325 (peptide)
peptide 1: XGSLDESFYDWFERQLGKK
peptide 2: XGSLDESFYDWFERQLGKK
modifications: N-terminal Lig′ coupled to linker 9
notes: dimer, N-N
B8: S292 (peptide)
peptide 1: XGGGFHENFYDWFVRQVSKK
peptide 2: XGGGFHENFYDWFVRQVSKK
modifications: not fully specified; N-terminal Lig′ coupled to linker 12
notes: dimer, N-N
B9: S350 (peptide)
peptide 1: GSLDESFYDWFERQLGKKX
peptide 2: GSLDESFYDWFERQLGKKX
modifications: not fully specified; C-terminal Lig coupled to linker 21
notes: dimer, C-C
B10: S379 (peptide)
peptide 1: GSLDESFYDWFERQLGKKKX
peptide 2: GSLDESFYDWFERQLGKKKX
modifications: C-terminal Lys carrying Ald coupled to linker 19
notes: dimer, C-C
B11: S354 (peptide)
peptide 1: XGSLDESFYDWFERQLGKK
peptide 2: XGSLDESFYDWFERQLGKK
modifications: N-terminal Lig′ coupled to linker 14
notes: dimer, N-N
B12: S381 (peptide)
peptide 1: EEDWLQRNANFYDWFVAELX
peptide 2: EEDWLQRNANFYDWFVAELX
modifications: C-terminal Lig′ coupled to linker 23
notes: dimer, C-C
B13: S359 (peptide)
peptide 1: XDWLQRNANFYDWFVAEL
peptide 2: XDWLQRNANFYDWFVAEL
modifications: N-terminal Lig′ coupled to linker 9
notes: dimer, N-N
B14: S335 (peptide)
peptide 1: GSLDESFYDWFERQLGKKX
peptide 2: GSLDESFYDWFERQLGKKX
modifications: not fully specified; C-terminal Lig coupled to linker 22
notes: dimer, C-C
B15: S376 (peptide)
peptide 1: XGSLDESFYDWFERQLGKK
peptide 2: XGSLDESFYDWFERQLGKK
modifications: N-terminal Ald coupled to linker 19
notes: dimer, N-N
B16: S374 (peptide)
peptide 1: XGSLDESFYDWFERQLGKK
peptide 2: XGSLDESFYDWFERQLGKK
modifications: not fully specified; N-terminal Ald (aldehyde from periodate oxidation of serine) coupled to linker 17
notes: dimer, N-N
B17: S360 (peptide)
peptide 1: XDWLQRNANFYDWFVAEL
peptide 2: XDWLQRNANFYDWFVAEL
modifications: N-terminal Lig′ coupled to linker 23
notes: dimer, N-N
B18: S290 (peptide)
peptide 1: XGGGFHENFYDWFVRQVSKK
peptide 2: XGGGFHENFYDWFVRQVSKK
modifications: not fully specified; N-terminal Lig′ coupled to linker 7
notes: dimer, N-N
B19: S329 (peptide)
peptide 1: XFHENFYDWFVRQVSKK
peptide 2: XFHENFYDWFVRQVSKK
modifications: N-terminal Lig′ coupled to linker 17
notes: dimer, N-N
B20: S352 (peptide)
peptide 1: XGGGFHENFYDWFVRQVSKK
peptide 2: XGGGFHENFYDWFVRQVSKK
modifications: N-terminal Lig′ coupled to linker 21
notes: dimer, N-N
B21: S361 (peptide)
peptide 1: GSLDESFYDWFERQLGKKX
peptide 2: GSLDESFYDWFERQLGKKX
modifications: C-terminal Lig′ coupled to linker 24
notes: dimer, C-C
B22: S333 (peptide)
peptide 1: XGSLDESFYDWFERQLGKK
peptide 2: XGSLDESFYDWFERQLGKK
modifications: N-terminal Lig′ coupled to linker 22
notes: dimer, N-N
B23: S378 (peptide)
peptide 1: GSLDESFYDWFERQLGKKKX
peptide 2: GSLDESFYDWFERQLGKKKX
modifications: C-terminal Lys carrying Ald coupled to linker 17
notes: dimer, C-C

target: T1, Soluble IGF-1R (R&D Systems, Cat. # 391-GR/CF); recombinant human IGF-1R (human, UniProt P08069 31-935); experiment: phage ELISA, vs IR
T1 construct: extracellular domain; Eu3+-labelled in the TR-FRET assays; also called sIGF-1R; rhIGF-1R

Row | IGF-1R/IR Comparison | Binder
1 | 20.5 ratio | CCTTEMVVMDARDDPFYHKLSELVTGG [B6Hα-1-B5-IR]
2 | 3 ratio | RGAVAGFHDQFYDWFDRQVSRVHKFG [H2CA-4-E9-IGFR]
3 | 13 ratio | YRGMLVLGRISGGAGKAASERPARIGQKVSAVNFYDWFV [A6L-0-H3-IR]

target: T1, Soluble IGF-1R (R&D Systems, Cat. # …); experiment: phage ELISA vs milk

Row | Ratio over Background | Binder
4 | 20.5 fold | CCTTEMVVMDARDDPFYHKLSELVTGG [B6Hα-1-B5-IR]
5 | 5.6 fold | RGAVAGFHDQFYDWFDRQVSRVHKFG [H2CA-4-E9-IGFR]
6 | 26 fold | YRGMLVLGRISGGAGKAASERPARIGQKVSAVNFYDWFV [A6L-0-H3-IR]

target: human insulin receptor (HIR) (human, UniProt P06213 28-1382, limits assumed); experiment: 125I-insulin competition, solubilised HIR

Row | Kd | Binder
7 | 0.00069 µM | B1
8 | 0.095 µM | ESFYDWFERQL [S399]
9 | 0.63 µM | ESFYDWFERQ [S400]
10 | 0.03 µM | B2

target: T2, human insulin receptor (HIR) (human, UniProt P06213 28-1382, limits assumed); experiment: 125I-insulin displacement, solubilised HIR
T2 construct: Detergent-solubilised receptor; The natural receptor is an alpha2-beta2 heterotetramer cleaved from one precursor

Row | Kd | Binder
11 | 0.63 µM | SLDESFYDWFERQLG [S387]
12 | 1.6 µM | B3
13 | 5.9 µM | QAPSNFYDWFVREWDEE [S287]
14 | 21 µM | GGSFYDD[Ac6c]E[Aib]LW[Aib]G (printed: GGSFYDD-Acy-E-Aib-LW-Aib-G) [S304]
15 | 0.64 µM | B4
16 | 0.63 µM | GSLDESFYDWFERQLGKK (also called RP9) [S371]
17 | 0.11 µM | B5
18 | 0.87 µM | D[Aic′]D[Aib]EFYDWFDE[dI]P[dQ] [S319]
19 | 0.11 µM | TGHRLGLDEQFYWWFRDALSG [S265]
20 | 0.86 µM | SDGFYNA[Ac6c]ELLSG (printed: SDGFYNA-Acy-ELLSG) [S302]
21 | 0.12 µM | B6
22 | 0.046 µM | B7
23 | 0.72 µM | EWRD[Hyp]FYDWFDE[dI][Hyp][dE] (printed: EWRD-Hyp-FYDWFDEi-Hyp-e) [S322]
24 | 0.83 µM | WLEHEWAQIQCELYGRGCTY [S285]
25 | 0.75 µM | B8
26 | 0.47 µM | B9
27 | 0.32 µM | GSLDESFYDWFERQLG (also called RP9 minus terminal lysines) [S386]
28 | 0.056 µM | B10
29 | 0.039 µM | B11
30 | 1.6 µM | KHLCVLEELFWGASLFGYCSGKK [S331]
31 | 3.8 µM | FYDWFERQLG [S392]
32 | 0.12 µM | GSLDESFYDWFERQLGKKKS (not fully specified; printed as GSLDESFYDWFERQLGKKK(S)) [S373]
33 | 0.37 µM | PLRESRNFYDWFVQQLE [S366]
34 | 0.13 µM | DWLQRNANFYDWFVAELX (C-terminal Lig′) [S294]
35 | 10 µM | RMYFSTGAPQNFYDWFVQEWD [S365]
36 | 0.45 µM | RD[Hyp]FYDWFDD[dI] (printed: RD-Hyp-FYDWFDDi) [S268]

Row | Kd | Binder
37 | 8.1 µM | GSLDESFYDWFERQL [S395]
38 | 0.59 µM | GIISQSCPESFYDWFAGQVSDPWWC[dW] (cysteine pairing not given here, also called G33; H2CA-4-G9-IGFR) [S326]
39 | 0.12 µM | B12
40 | 0.2 µM | SGSLDESFYDWFERQLGKK [S372]
41 | 0.7 µM | B13
42 | 0.098 µM | B14
43 | 0.16 µM | B15
44 | 0.18 µM | B16
45 | 7 µM | WQGYAWLS [S316]
46 | 1.8 µM | DLWFNAKEDMNFYDWFVWQLR [S342]
47 | 0.19 µM | IQGWEPFYGWFDDVVAQMFEE [S264]
48 | 0.99 µM | B17
49 | 2.2 µM | GRVDWLQRNANFYDWFVAE[Ac6c]G [S306]
50 | 0.9 µM | B18
51 | 0.34 µM | LDESFYDWFERQLG [S388]
52 | 11 µM | DLRVLCELFGGAYVLGYCSE [S281]
53 | 4.3 µM | QSFYDYIEELLGGEWKK [S288]
54 | 2.7 µM | B19
55 | 0.66 µM | B20
56 | 2.2 µM | B21
57 | 0.84 µM | N[Aib]PFYDE[Ac6c]DE[Cha]W[Aib]G (printed: N-Aib-PFYDE-Acy-DE-Cha-W-Aib-G) [S305]
58 | 0.091 µM | GSLDESFYDWFERQ [S394]
59 | 0.14 µM | B22
60 | 5.7 µM | SGPFYEE[Ac6c]ELLW[Aib]G (printed: SGPFYEE-Acy-ELLW-Aib-G) [S303]
61 | 0.065 µM | B23
